Assay results as given in PMC8155481.

What was measured:
[1] = molecular target: FBG-like domain of human Tenascin-X (human); test: SPR; Biacore T200; FBG-like domains immobilised on CM5 by amine coupling; mature TGF-β1 injected in single-cycle mode; PBS with 0.05% P-20, 25°C, 30 µl/min; heterogeneous ligand model; apparent constants
[2] = molecular target: FBG-like domain of human Tenascin-W with Arg1220 changed to alanine (FBG-W^RKKA) (human); test: as above

- ka1 (heterogeneous ligand model, site 1) [1]: 8080 M⁻¹ s⁻¹
- ka2 (heterogeneous ligand model, site 2) [1]: 207000 M⁻¹ s⁻¹
- kd1 (heterogeneous ligand model, site 1) [1]: 0.00276 s⁻¹
- kd2 (heterogeneous ligand model, site 2) [1]: 0.0845 s⁻¹
- KD1 (heterogeneous ligand model, site 1) [2]: 1.89 µM
- KD2 (heterogeneous ligand model, site 2) [2]: 6.48 µM
- ka1 (heterogeneous ligand model, site 1) [2]: 1040 M⁻¹ s⁻¹
- ka2 (heterogeneous ligand model, site 2) [2]: 14300 M⁻¹ s⁻¹
- kd1 (heterogeneous ligand model, site 1) [2]: 0.00196 s⁻¹
- kd2 (heterogeneous ligand model, site 2) [2]: 0.0926 s⁻¹
Substance: recombinant human mature TGF-β1 (ligand)
